The star is where a group is joined. FITC = O=C1OC2(c3ccc(O)cc3Oc3cc(O)ccc32)c2ccc(NC(=S)*)cc21; DABSYL = CN(C)c1ccc(/N=N/c2ccc(S(=O)(=O)*)cc2)cc1
Target: L subunits (L1, L2, L3)
Experiment: Titration of R units against L subunits, fluorescence intensity after 2 hours
Assay type: binding
Details: R 400 nM to 100 pM against 50 nM L in 1×PBS, pH 7.4, 20-25° C., only rank order given
Procedure: Residual fluorescence can be due to remaining unreacted L subunits.
In FIG. 4B, R units (400 nM to 100 pM in 1×PBS, pH 7.4) are titrated against 50 nM of L subunits in 1×PBS, pH 7.4 at 20-25° C. and the fluorescence intensities measured after 2 hours. […] All the measurements were performed in triplicates (n=3) and the error bar represents the standard deviation of the data. Statistical analysis was performed using Unpaired t test in GraphPad software and the calculated P is represented as follows: **P<0.01.

| Molecule | affinity of R subunits toward L subunits (Kd values), preferential order |
| --- | --- |
| {Lys(DABSYL)}QELAAIEWELAANERELAAIEGCFNKTFLDKFNHEAEDLFYQSSLARIAALKYKNAALKKKIA{LYS(FITC)} (peptide) K(DABSYL)QELAAIEWELAANERELAAIEGCFNKTFLDKFNHEAEDLFYQSSLARIAALKYKNAALKKKIAK(FITC) | RL3>RL1>RL2 |
| {Lys(DABSYL)}QELAAIEWELAANERELAAIEGCFNKTFLDKFNHEAEDLFYQSSLARIAALKYKNAALKKKIAALKQ{LYS(FITC)} (peptide) K(DABSYL)QELAAIEWELAANERELAAIEGCFNKTFLDKFNHEAEDLFYQSSLARIAALKYKNAALKKKIAALKQK(FITC) | RL3>RL1>RL2 |
| {Lys(DABSYL)}QELAAIEWELAANERELAAIEGCFNKTFLDKFNHEAEDLFYQSSLARIAALKYKNAALK{LYS(FITC)} (peptide) K(DABSYL)QELAAIEWELAANERELAAIEGCFNKTFLDKFNHEAEDLFYQSSLARIAALKYKNAALKK(FITC) | RL3>RL1>RL2 |

Reference: patent publication US20230194525A1, “PEPTIDE BASED PROBES FOR THE DETECTION OF SARS-COV-2” (priority 2021, published 2023)
